B1: HDV Ribozyme (parent)
chain: GGCCGGCAUGGUCCCAGCCUCCUCGCUGGCGCCGGCUGGGCAACAUUCCGAGGGGACCGUCCCCUCGGUAAUGGCGAAUGGGACCCA

This data set covers variants of B1. As to the kind of experiment: self-cleavage, relative activity (ratio to wild type); higher = more cleavage; co-transcriptional.
With GGCCGGCAUGGUCCCAGCUUCAUCGCUGGCGCCGGCUGGGCAACAUUCCGAGGGGACCGUCCCCUCGGUAAUGGCGAAUGGGACCCA [C19U C22A], the self-cleavage was 0.0886. The value for GGCCGGCAUGGUCCCAGCUUCCUCGCUGGCGCCGGCUGGGCAACAUUCCGAGGGGACCGUCCCCUCGGUAAUGGCGAAGGGGACCCA [C19U U79G] was 0.0997. On to GGCCGGCAUGGUCCCAGCUUCCUCGCUGGCGCCGGCUGGGCAACAUUCCGAGGGGACCGUCCCCUCGGUAAUGGCGAAAGGGACCCA [C19U U79A], for which the self-cleavage was determined as 0.0396. For the variant GGCCGGCAUGGUCCCAGCUUCCUAGCUGGCGCCGGCUGGGCAACAUUCCGAGGGGACCGUCCCCUCGGUAAUGGCGAAUGGGACCCA [C19U C24A], the self-cleavage turned out to be 0.0791. In the case of GGCCGGCAUGGUCCCAGCCACCUUGCUGGCGCCGGCUGGGCAACAUUCCGAGGGGACCGUCCCCUCGGUAAUGGCGAAUGGGACCCA [U20A C24U], the self-cleavage worked out at 0.162.

Turning to GGCCGGCAUGGUCCCAGCCACCUAGCUGGCGCCGGCUGGGCAACAUUCCGAGGGGACCGUCCCCUCGGUAAUGGCGAAUGGGACCCA [U20A C24A], the self-cleavage came to 0.0415.

On to GGCCGGCAUGGUCCCAGCUUCCUCGCUGGCGCCGGCUGGUCAACAUUCCGAGGGGACCGUCCCCUCGGUAAUGGCGAAUGGGACCCA [C19U G40U], for which the self-cleavage was found to be 0.0839.

Regarding GGCCGGCAUGGUCCCAGCCAACUCGCUGGCGCCGGCUGGGCAACAUUCCGAGGGGACCGUCCCCUCGGUAAUGGCGAAUGGGACCCA [U20A C21A], the self-cleavage was found to be 0.0536. For GGCCGGCAUGGUCCCAGCCAGCUCGCUGGCGCCGGCUGGGCAACAUUCCGAGGGGACCGUCCCCUCGGUAAUGGCGAAUGGGACCCA [U20A C21G] the value was 0.256; for GGCCGGCAUGGUCCCAGCUUCCUCGCUGGCGCCGGCUGGGCAACAUUCCGAGUGGACCGUCCCCUCGGUAAUGGCGAAUGGGACCCA [C19U G53U], 0.215. Consider GGCCGGCAUGGUCCCAGCCACCUCGCUGGCGCCGGCUGGGCACCAUUCCGAGGGGACCGUCCCCUCGGUAAUGGCGAAUGGGACCCA [U20A A43C], for which the self-cleavage was found to be 0.0978. In the case of GGCCGGCAUGGUCCCAGCUUCCUCGCUGGCGCCGGCUGGGCAACAUUCCGAGGGGACCGUCCCCUCGGUAAUGGCGAAUGGGACCCU [C19U A87U], the self-cleavage turned out to be 0.149. Take GGCCGGCAUGGUCCCAGCUUCCUCGCUGGCGCCGGCUGGGCAACAUUCCGAUGGGACCGUCCCCUCGGUAAUGGCGAAUGGGACCCA [C19U G52U]: the self-cleavage came out at 0.265. With GGCCGGCAUGGUCCCAGCUUCCUCGCUGGCGCCGGCUGGGCAACAUUCCGAAGGGACCGUCCCCUCGGUAAUGGCGAAUGGGACCCA [C19U G52A], the self-cleavage came to 0.137. Take GGCCGGCAUGGUCCCAGCUUCCUCGCUGGCGCCAGCUGGGCAACAUUCCGAGGGGACCGUCCCCUCGGUAAUGGCGAAUGGGACCCA [C19U G34A]: the self-cleavage stood at 0.0468. For GGCCGGCAUGGUCCCAGCUUCCUCGCUGGCGCCGGCUGGGCAACAUUCCGAGGGGACCGUCCCCUCGGUAAUGGCGAAUGGGACCUA [C19U C86U], the self-cleavage was determined as 0.122. For GGCCGGCAUGGUCCCAGCUUCCUCGCUGGCGCCGGCUGGGCAACAUUCCGAGGGGACCGUCCCCUCGGUAAUGGCGAAUGGGACCGA [C19U C86G], the self-cleavage stood at 0.116. With GGCCGGCAUGGUCCCAGCUUCCUCGCUGGCGCCGGCUGGGCAACAUUCCGAGGGGACCGUCCCCUCGGUAAUGGCGAAUGGGACCAA [C19U C86A], the self-cleavage was 0.194. The value for GGCCGGCAUGGUCCCAGCUUACUCGCUGGCGCCGGCUGGGCAACAUUCCGAGGGGACCGUCCCCUCGGUAAUGGCGAAUGGGACCCA [C19U C21A] was 0.0573; that for GGCCGGCAUGGUCCCAGCUUCCUCGCUGGCGCAGGCUGGGCAACAUUCCGAGGGGACCGUCCCCUCGGUAAUGGCGAAUGGGACCCA [C19U C33A] was 0.0665.

Consider GGCCGGCAUGGUCCCAGCUUCCUCGCUGGCGCCGUCUGGGCAACAUUCCGAGGGGACCGUCCCCUCGGUAAUGGCGAAUGGGACCCA [C19U G35U], for which the self-cleavage amounted to 0.0519.

Consider GGCCGGCAUGGUCCCAGCUUCCUCGCUGGCACCGGCUGGGCAACAUUCCGAGGGGACCGUCCCCUCGGUAAUGGCGAAUGGGACCCA [C19U G31A], for which the self-cleavage was determined as 0.102. The value for GGCCGGCAUGGUCCCAGCCACCUCGCUGGCGCCGGCUGGGCAACAUUCCGAGGGGACUGUCCCCUCGGUAAUGGCGAAUGGGACCCA [U20A C58U] was 0.158.

Turning to GGCCGGCAUGGUCCCAGCUUCCUCGCUGGCGCCGGCUGGGCAACAUUCCGAGGGGAUCGUCCCCUCGGUAAUGGCGAAUGGGACCCA [C19U C57U], the self-cleavage was found to be 0.165. For GGCCGGCAUGGUCCCAGCUUCCUCGCUGGCGCCGGCUGGGCAACAUUCCGAGGGGAGCGUCCCCUCGGUAAUGGCGAAUGGGACCCA [C19U C57G] the value was 0.089. Regarding GGCCGGCAUGGUCCCAGCUUCCUCGCUGGCGCCGGUUGGGCAACAUUCCGAGGGGACCGUCCCCUCGGUAAUGGCGAAUGGGACCCA [C19U C36U], the self-cleavage was determined as 0.0314. The value for GGCCGGCAUGGUCCCAGCUUCCUCGCUGGCGCCGGCUGGGCAACAUUCCGAGGGGACCGUACCCUCGGUAAUGGCGAAUGGGACCCA [C19U C61A] was 0.243.

GGCCGGCAUGGUCCCAGCUCCCUCGCUGGCGCCGGCUGGGCAACAUUCCGAGGGGACCGUCCCCUCGGUAAUGGCGAAUGGGACCCA [C19U U20C]: the self-cleavage amounted to 0.145.

GGCCGGCAUGGUCCCAGCUUCCUCGCUGGCGCCGGCUGGGCAACAUUCGGAGGGGACCGUCCCCUCGGUAAUGGCGAAUGGGACCCA [C19U C49G]: the self-cleavage came to 0.154. GGCCGGCAUGGUCCCAGCCACCUCGCUGGCGCCGGCUGGGCAACAUUCCGAGGGGACCGUCCCCUCGGUAGUGGCGAAUGGGACCCA [U20A A71G]: the self-cleavage amounted to 0.0665.

Take GGCCGGCAUGGUCCCAGCCACCUCGCUGGCGCCGGCUGGGCAACAUUCCGAGGGGUCCGUCCCCUCGGUAAUGGCGAAUGGGACCCA [U20A A56U]: the self-cleavage amounted to 0.0519. GGCCGGCAUGGUCCCAGCCACCUCGCUGGCGCCGGCUGGGCAACAUUCCGAGGGGACCGUCACCUCGGUAAUGGCGAAUGGGACCCA [U20A C62A]: the self-cleavage turned out to be 0.119.

For the origin of these results see the RNAGym collection of RNA variant scans (doi:10.7554/elife.80360).
